B1: BCL2L13 (parent)
chain: MASSSTVPLGFHYETKYVVLSYLG
B2: TRIB1 (parent)
chain: EIGTSDQIVPEYQEDSDISSFFC

Variants of: B1
Test: protein stability index of a GFP-peptide fusion (GPS, HEK-293T) (PSI 1-6); higher = more stable
Details: c terminus: a fixed tail appended
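Also: lentivirally expressed fusions sorted by FACS into six bins by GFP to DsRed ratio, PSI derived from sequencing read proportions per bin multiplied by bin number.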

| Variant | protein stability index |
| --- | --- |
| MASSSTVPLGFHYETKYVVLSYLT [G24T] | 2.13 |
| MASSSTVPLGFHYETKYVVLSYLV [G24V] | 3.35 |
| MASSSTVPLGFHYETKYVVLSYLL [G24L] | 2.98 |
| MASSSTVPLGFHYETKYVVLSYLN [G24N] | 2.1 |
| MASSSTVPLGFHYETKYVVLSYLW [G24W] | 3.89 |
| MASSSTVPLGFHYETKYVVLSYLQ [G24Q] | 2.62 |
| MASSSTVPLGFHYETKYVVLSYLS [G24S] | 1.97 |
| MASSSTVPLGFHYETKYVVLSYLR [G24R] | 2.06 |
| MASSSTVPLGFHYETKYVVLSYLY [G24Y] | 1.89 |
| MASSSTVPLGFHYETKYVVLSYLM [G24M] | 1.84 |
| MASSSTVPLGFHYETKYVVLSYLP [G24P] | 2.71 |

Variants of: B2
Test: as above
Details: c terminus: native

| Variant | protein stability index |
| --- | --- |
| EIRTSDQIVPEYQEDSDISSFFC [G3R] | 2.31 |
| EICTSDQIVPEYQEDSDISSFFC [G3C] | 2.38 |
| EIMTSDQIVPEYQEDSDISSFFC [G3M] | 2.83 |
| EIATSDQIVPEYQEDSDISSFFC [G3A] | 2.64 |
| EIYTSDQIVPEYQEDSDISSFFC [G3Y] | 2.38 |
| EIFTSDQIVPEYQEDSDISSFFC [G3F] | 2.32 |
| EILTSDQIVPEYQEDSDISSFFC [G3L] | 2.29 |
| EITTSDQIVPEYQEDSDISSFFC [G3T] | 3.01 |
| EINTSDQIVPEYQEDSDISSFFC [G3N] | 2.81 |
| EIQTSDQIVPEYQEDSDISSFFC [G3Q] | 2.7 |
| EIITSDQIVPEYQEDSDISSFFC [G3I] | 2.42 |
| EIHTSDQIVPEYQEDSDISSFFC [G3H] | 2.63 |
| EIETSDQIVPEYQEDSDISSFFC [G3E] | 2.97 |
| EIVTSDQIVPEYQEDSDISSFFC [G3V] | 2.78 |
| EIWTSDQIVPEYQEDSDISSFFC [G3W] | 2.18 |
| EIDTSDQIVPEYQEDSDISSFFC [G3D] | 2.55 |
| EIPTSDQIVPEYQEDSDISSFFC [G3P] | 2.97 |
| EIKTSDQIVPEYQEDSDISSFFC [G3K] | 2.65 |
| EISTSDQIVPEYQEDSDISSFFC [G3S] | 2.57 |
| EIGTSKQIVPEYQEDSDISSFFC [D6K] | 5.18 |
| EIGTSPQIVPEYQEDSDISSFFC [D6P] | 4.84 |
| EIGTSAQIVPEYQEDSDISSFFC [D6A] | 4.92 |

| Variant | protein stability index |
| --- | --- |
| EIGTSYQIVPEYQEDSDISSFFC [D6Y] | 4.65 |
| EIGTSRQIVPEYQEDSDISSFFC [D6R] | 5.04 |
| EIGTSCQIVPEYQEDSDISSFFC [D6C] | 4.7 |
| EIGTSQQIVPEYQEDSDISSFFC [D6Q] | 5.04 |
| EIGTSNQIVPEYQEDSDISSFFC [D6N] | 4.69 |
| EIGTSIQIVPEYQEDSDISSFFC [D6I] | 4.07 |
| EIGTSLQIVPEYQEDSDISSFFC [D6L] | 4.45 |
| EIGTSTQIVPEYQEDSDISSFFC [D6T] | 5.07 |
| EIGTSHQIVPEYQEDSDISSFFC [D6H] | 4.9 |
| EIGTSGQIVPEYQEDSDISSFFC [D6G] | 5.55 |
| EIGTSEQIVPEYQEDSDISSFFC [D6E] | 4.77 |
| EIGTSVQIVPEYQEDSDISSFFC [D6V] | 4.57 |
| EIGTSMQIVPEYQEDSDISSFFC [D6M] | 4.3 |
| EIGTSSQIVPEYQEDSDISSFFC [D6S] | 5.45 |
| EIGTSWQIVPEYQEDSDISSFFC [D6W] | 4.11 |
| EIGTSFQIVPEYQEDSDISSFFC [D6F] | 4.14 |
| EIGTSDQIKPEYQEDSDISSFFC [V9K] | 5.49 |
| EIGTSDQIRPEYQEDSDISSFFC [V9R] | 4.88 |
| EIGTSDQINPEYQEDSDISSFFC [V9N] | 5.57 |
| EIGTSDQIWPEYQEDSDISSFFC [V9W] | 4.34 |
| EIGTSDQIHPEYQEDSDISSFFC [V9H] | 5.32 |
| EIGTSDQIAPEYQEDSDISSFFC [V9A] | 5.16 |

| Variant | protein stability index |
| --- | --- |
| EIGTSDQIDPEYQEDSDISSFFC [V9D] | 5.51 |
| EIGTSDQISPEYQEDSDISSFFC [V9S] | 5.26 |
| EIGTSDQIGPEYQEDSDISSFFC [V9G] | 5.29 |
| EIGTSDQIFPEYQEDSDISSFFC [V9F] | 4.94 |
| EIGTSDQICPEYQEDSDISSFFC [V9C] | 5.31 |
| EIGTSDQIMPEYQEDSDISSFFC [V9M] | 5.12 |
| EIGTSDQIEPEYQEDSDISSFFC [V9E] | 5.74 |
| EIGTSDQIPPEYQEDSDISSFFC [V9P] | 5.38 |
| EIGTSDQIYPEYQEDSDISSFFC [V9Y] | 5.2 |
| EIGTSDQILPEYQEDSDISSFFC [V9L] | 4.95 |
| EIGTSDQIIPEYQEDSDISSFFC [V9I] | 4.93 |
| EIGTSDQITPEYQEDSDISSFFC [V9T] | 5.53 |
| EIGTSDQIQPEYQEDSDISSFFC [V9Q] | 5.78 |
| EGGTSDQIVPEYQEDSDISSFFC [I2G] | 3.58 |
| EMGTSDQIVPEYQEDSDISSFFC [I2M] | 3.15 |
| EKGTSDQIVPEYQEDSDISSFFC [I2K] | 2.9 |
| ENGTSDQIVPEYQEDSDISSFFC [I2N] | 2.74 |
| EDGTSDQIVPEYQEDSDISSFFC [I2D] | 4.01 |
| EAGTSDQIVPEYQEDSDISSFFC [I2A] | 2.86 |
| EPGTSDQIVPEYQEDSDISSFFC [I2P] | 4.12 |
| EYGTSDQIVPEYQEDSDISSFFC [I2Y] | 2.81 |
| ECGTSDQIVPEYQEDSDISSFFC [I2C] | 2.57 |

| Variant | protein stability index |
| --- | --- |
| ERGTSDQIVPEYQEDSDISSFFC [I2R] | 2.59 |
| EHGTSDQIVPEYQEDSDISSFFC [I2H] | 3.45 |
| EVGTSDQIVPEYQEDSDISSFFC [I2V] | 3.35 |
| EFGTSDQIVPEYQEDSDISSFFC [I2F] | 2.59 |
| ETGTSDQIVPEYQEDSDISSFFC [I2T] | 2.75 |
| EWGTSDQIVPEYQEDSDISSFFC [I2W] | 2.06 |
| ELGTSDQIVPEYQEDSDISSFFC [I2L] | 3.06 |
| EQGTSDQIVPEYQEDSDISSFFC [I2Q] | 2.73 |
| EEGTSDQIVPEYQEDSDISSFFC [I2E] | 3.64 |
| ESGTSDQIVPEYQEDSDISSFFC [I2S] | 2.94 |
| EIGRSDQIVPEYQEDSDISSFFC [T4R] | 2.88 |
| EIGQSDQIVPEYQEDSDISSFFC [T4Q] | 2.25 |
| EIGVSDQIVPEYQEDSDISSFFC [T4V] | 2.67 |
| EIGDSDQIVPEYQEDSDISSFFC [T4D] | 2.32 |
| EIGKSDQIVPEYQEDSDISSFFC [T4K] | 3.25 |
| EIGESDQIVPEYQEDSDISSFFC [T4E] | 2.86 |
| EIGMSDQIVPEYQEDSDISSFFC [T4M] | 2.67 |
| EIGISDQIVPEYQEDSDISSFFC [T4I] | 2.62 |
| EIGHSDQIVPEYQEDSDISSFFC [T4H] | 2.55 |
| EIGGSDQIVPEYQEDSDISSFFC [T4G] | 3.12 |

— the supplement of paper PMC10567573
